The results in this text go back to patent publication US20070031511A1, “Method of treatment” (priority 2003, published 2007).

The target of the test is Ggly receptor on IMGE-5 cells. The test is described as follows: cell-based or functional assay.

pentapeptide E5 yielded an ED50 (nM), proliferation of IMGE cells, thymidine uptake of 1.4 nM.
